Measurements published in US20210388087A1 (Chugai, published 2021).

T1: Human CD3eg linker (human)
T1 construct: Single chain: epsilon and gamma subunits of human CD3 joined by a 29-mer linker, Flag-tag at the C-terminus; also called recombinant human CD3
T1 chain: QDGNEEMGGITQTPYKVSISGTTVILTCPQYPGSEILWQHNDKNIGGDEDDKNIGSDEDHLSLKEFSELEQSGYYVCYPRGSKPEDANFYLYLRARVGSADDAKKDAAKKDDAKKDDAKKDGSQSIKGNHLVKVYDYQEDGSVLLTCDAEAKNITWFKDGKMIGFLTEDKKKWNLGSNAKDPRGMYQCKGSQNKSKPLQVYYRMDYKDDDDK

B1: H183/L072 VH Y55T (antibody, name in Kabat numbering, V domains shown)
VH: QVQLVESGGGLVQPGRSLRLSCAASGFTFSNAWMHWVRQAPGKGLEWVAQIKDKGNATAAYYAPSVKGRFTISRDDSKNSIYLQMNSLKTEDTAVYYCHYVHYASASTVLPAFGVDAWGQGTTVTVSS
VL: DIVMTQSPLSLPVTPGEPASISCQASQELVHMNRNTYLHWYQQKPGQAPRLLIYKVSNRFPGVPDRFSGSGSGTDFTLKISRVEAEDVGVYYCAQGTSVPFTFGQGTKLEIK
B2: H183/L072 VH Y58H (antibody, name in Kabat numbering, V domains shown)
VH: QVQLVESGGGLVQPGRSLRLSCAASGFTFSNAWMHWVRQAPGKGLEWVAQIKDKGNAYAAHYAPSVKGRFTISRDDSKNSIYLQMNSLKTEDTAVYYCHYVHYASASTVLPAFGVDAWGQGTTVTVSS
VL: DIVMTQSPLSLPVTPGEPASISCQASQELVHMNRNTYLHWYQQKPGQAPRLLIYKVSNRFPGVPDRFSGSGSGTDFTLKISRVEAEDVGVYYCAQGTSVPFTFGQGTKLEIK
B3: H183/L072 VH Y58K (antibody, name in Kabat numbering, V domains shown)
VH: QVQLVESGGGLVQPGRSLRLSCAASGFTFSNAWMHWVRQAPGKGLEWVAQIKDKGNAYAAKYAPSVKGRFTISRDDSKNSIYLQMNSLKTEDTAVYYCHYVHYASASTVLPAFGVDAWGQGTTVTVSS
VL: DIVMTQSPLSLPVTPGEPASISCQASQELVHMNRNTYLHWYQQKPGQAPRLLIYKVSNRFPGVPDRFSGSGSGTDFTLKISRVEAEDVGVYYCAQGTSVPFTFGQGTKLEIK
B4: H183/L072 VH Y55V (antibody, name in Kabat numbering, V domains shown)
VH: QVQLVESGGGLVQPGRSLRLSCAASGFTFSNAWMHWVRQAPGKGLEWVAQIKDKGNAVAAYYAPSVKGRFTISRDDSKNSIYLQMNSLKTEDTAVYYCHYVHYASASTVLPAFGVDAWGQGTTVTVSS
VL: DIVMTQSPLSLPVTPGEPASISCQASQELVHMNRNTYLHWYQQKPGQAPRLLIYKVSNRFPGVPDRFSGSGSGTDFTLKISRVEAEDVGVYYCAQGTSVPFTFGQGTKLEIK
B5: H183/L072 VH Y58F (antibody, name in Kabat numbering, V domains shown)
VH: QVQLVESGGGLVQPGRSLRLSCAASGFTFSNAWMHWVRQAPGKGLEWVAQIKDKGNAYAAFYAPSVKGRFTISRDDSKNSIYLQMNSLKTEDTAVYYCHYVHYASASTVLPAFGVDAWGQGTTVTVSS
VL: DIVMTQSPLSLPVTPGEPASISCQASQELVHMNRNTYLHWYQQKPGQAPRLLIYKVSNRFPGVPDRFSGSGSGTDFTLKISRVEAEDVGVYYCAQGTSVPFTFGQGTKLEIK
B6: H183/L072 VH Y58V (antibody, name in Kabat numbering, V domains shown)
VH: QVQLVESGGGLVQPGRSLRLSCAASGFTFSNAWMHWVRQAPGKGLEWVAQIKDKGNAYAAVYAPSVKGRFTISRDDSKNSIYLQMNSLKTEDTAVYYCHYVHYASASTVLPAFGVDAWGQGTTVTVSS
VL: DIVMTQSPLSLPVTPGEPASISCQASQELVHMNRNTYLHWYQQKPGQAPRLLIYKVSNRFPGVPDRFSGSGSGTDFTLKISRVEAEDVGVYYCAQGTSVPFTFGQGTKLEIK
B7: H183/L072 VH Y58M (antibody, name in Kabat numbering, V domains shown)
VH: QVQLVESGGGLVQPGRSLRLSCAASGFTFSNAWMHWVRQAPGKGLEWVAQIKDKGNAYAAMYAPSVKGRFTISRDDSKNSIYLQMNSLKTEDTAVYYCHYVHYASASTVLPAFGVDAWGQGTTVTVSS
VL: DIVMTQSPLSLPVTPGEPASISCQASQELVHMNRNTYLHWYQQKPGQAPRLLIYKVSNRFPGVPDRFSGSGSGTDFTLKISRVEAEDVGVYYCAQGTSVPFTFGQGTKLEIK
B8: H183/L072 VH Y58G (antibody, name in Kabat numbering, V domains shown)
VH: QVQLVESGGGLVQPGRSLRLSCAASGFTFSNAWMHWVRQAPGKGLEWVAQIKDKGNAYAAGYAPSVKGRFTISRDDSKNSIYLQMNSLKTEDTAVYYCHYVHYASASTVLPAFGVDAWGQGTTVTVSS
VL: DIVMTQSPLSLPVTPGEPASISCQASQELVHMNRNTYLHWYQQKPGQAPRLLIYKVSNRFPGVPDRFSGSGSGTDFTLKISRVEAEDVGVYYCAQGTSVPFTFGQGTKLEIK
B9: H183/L072 VH Y58D (antibody, name in Kabat numbering, V domains shown)
VH: QVQLVESGGGLVQPGRSLRLSCAASGFTFSNAWMHWVRQAPGKGLEWVAQIKDKGNAYAADYAPSVKGRFTISRDDSKNSIYLQMNSLKTEDTAVYYCHYVHYASASTVLPAFGVDAWGQGTTVTVSS
VL: DIVMTQSPLSLPVTPGEPASISCQASQELVHMNRNTYLHWYQQKPGQAPRLLIYKVSNRFPGVPDRFSGSGSGTDFTLKISRVEAEDVGVYYCAQGTSVPFTFGQGTKLEIK
B10: H183/L072 VH Y58S (antibody, name in Kabat numbering, V domains shown)
VH: QVQLVESGGGLVQPGRSLRLSCAASGFTFSNAWMHWVRQAPGKGLEWVAQIKDKGNAYAASYAPSVKGRFTISRDDSKNSIYLQMNSLKTEDTAVYYCHYVHYASASTVLPAFGVDAWGQGTTVTVSS
VL: DIVMTQSPLSLPVTPGEPASISCQASQELVHMNRNTYLHWYQQKPGQAPRLLIYKVSNRFPGVPDRFSGSGSGTDFTLKISRVEAEDVGVYYCAQGTSVPFTFGQGTKLEIK
B11: H183/L072 VH Y58E (antibody, name in Kabat numbering, V domains shown)
VH: QVQLVESGGGLVQPGRSLRLSCAASGFTFSNAWMHWVRQAPGKGLEWVAQIKDKGNAYAAEYAPSVKGRFTISRDDSKNSIYLQMNSLKTEDTAVYYCHYVHYASASTVLPAFGVDAWGQGTTVTVSS
VL: DIVMTQSPLSLPVTPGEPASISCQASQELVHMNRNTYLHWYQQKPGQAPRLLIYKVSNRFPGVPDRFSGSGSGTDFTLKISRVEAEDVGVYYCAQGTSVPFTFGQGTKLEIK
B12: H183/L072 VH Y58T (antibody, name in Kabat numbering, V domains shown)
VH: QVQLVESGGGLVQPGRSLRLSCAASGFTFSNAWMHWVRQAPGKGLEWVAQIKDKGNAYAATYAPSVKGRFTISRDDSKNSIYLQMNSLKTEDTAVYYCHYVHYASASTVLPAFGVDAWGQGTTVTVSS
VL: DIVMTQSPLSLPVTPGEPASISCQASQELVHMNRNTYLHWYQQKPGQAPRLLIYKVSNRFPGVPDRFSGSGSGTDFTLKISRVEAEDVGVYYCAQGTSVPFTFGQGTKLEIK
B13: H183/L072 VH Y58Q (antibody, name in Kabat numbering, V domains shown)
VH: QVQLVESGGGLVQPGRSLRLSCAASGFTFSNAWMHWVRQAPGKGLEWVAQIKDKGNAYAAQYAPSVKGRFTISRDDSKNSIYLQMNSLKTEDTAVYYCHYVHYASASTVLPAFGVDAWGQGTTVTVSS
VL: DIVMTQSPLSLPVTPGEPASISCQASQELVHMNRNTYLHWYQQKPGQAPRLLIYKVSNRFPGVPDRFSGSGSGTDFTLKISRVEAEDVGVYYCAQGTSVPFTFGQGTKLEIK
B14: H183/L072 VH Y58R (antibody, name in Kabat numbering, V domains shown)
VH: QVQLVESGGGLVQPGRSLRLSCAASGFTFSNAWMHWVRQAPGKGLEWVAQIKDKGNAYAARYAPSVKGRFTISRDDSKNSIYLQMNSLKTEDTAVYYCHYVHYASASTVLPAFGVDAWGQGTTVTVSS
VL: DIVMTQSPLSLPVTPGEPASISCQASQELVHMNRNTYLHWYQQKPGQAPRLLIYKVSNRFPGVPDRFSGSGSGTDFTLKISRVEAEDVGVYYCAQGTSVPFTFGQGTKLEIK
B15: H183/L072 VH Y55W (antibody, name in Kabat numbering, V domains shown)
VH: QVQLVESGGGLVQPGRSLRLSCAASGFTFSNAWMHWVRQAPGKGLEWVAQIKDKGNAWAAYYAPSVKGRFTISRDDSKNSIYLQMNSLKTEDTAVYYCHYVHYASASTVLPAFGVDAWGQGTTVTVSS
VL: DIVMTQSPLSLPVTPGEPASISCQASQELVHMNRNTYLHWYQQKPGQAPRLLIYKVSNRFPGVPDRFSGSGSGTDFTLKISRVEAEDVGVYYCAQGTSVPFTFGQGTKLEIK
B16: H183/L072 VH Y58N (antibody, name in Kabat numbering, V domains shown)
VH: QVQLVESGGGLVQPGRSLRLSCAASGFTFSNAWMHWVRQAPGKGLEWVAQIKDKGNAYAANYAPSVKGRFTISRDDSKNSIYLQMNSLKTEDTAVYYCHYVHYASASTVLPAFGVDAWGQGTTVTVSS
VL: DIVMTQSPLSLPVTPGEPASISCQASQELVHMNRNTYLHWYQQKPGQAPRLLIYKVSNRFPGVPDRFSGSGSGTDFTLKISRVEAEDVGVYYCAQGTSVPFTFGQGTKLEIK
B17: H183/L072 VH Y58L (antibody, name in Kabat numbering, V domains shown)
VH: QVQLVESGGGLVQPGRSLRLSCAASGFTFSNAWMHWVRQAPGKGLEWVAQIKDKGNAYAALYAPSVKGRFTISRDDSKNSIYLQMNSLKTEDTAVYYCHYVHYASASTVLPAFGVDAWGQGTTVTVSS
VL: DIVMTQSPLSLPVTPGEPASISCQASQELVHMNRNTYLHWYQQKPGQAPRLLIYKVSNRFPGVPDRFSGSGSGTDFTLKISRVEAEDVGVYYCAQGTSVPFTFGQGTKLEIK
B18: H183/L072 VH Y58A (antibody, name in Kabat numbering, V domains shown)
VH: QVQLVESGGGLVQPGRSLRLSCAASGFTFSNAWMHWVRQAPGKGLEWVAQIKDKGNAYAAAYAPSVKGRFTISRDDSKNSIYLQMNSLKTEDTAVYYCHYVHYASASTVLPAFGVDAWGQGTTVTVSS
VL: DIVMTQSPLSLPVTPGEPASISCQASQELVHMNRNTYLHWYQQKPGQAPRLLIYKVSNRFPGVPDRFSGSGSGTDFTLKISRVEAEDVGVYYCAQGTSVPFTFGQGTKLEIK
B19: H183/L072 VH Y58P (antibody, name in Kabat numbering, V domains shown)
VH: QVQLVESGGGLVQPGRSLRLSCAASGFTFSNAWMHWVRQAPGKGLEWVAQIKDKGNAYAAPYAPSVKGRFTISRDDSKNSIYLQMNSLKTEDTAVYYCHYVHYASASTVLPAFGVDAWGQGTTVTVSS
VL: DIVMTQSPLSLPVTPGEPASISCQASQELVHMNRNTYLHWYQQKPGQAPRLLIYKVSNRFPGVPDRFSGSGSGTDFTLKISRVEAEDVGVYYCAQGTSVPFTFGQGTKLEIK
B20: H183/L072 VH Y58I (antibody, name in Kabat numbering, V domains shown)
VH: QVQLVESGGGLVQPGRSLRLSCAASGFTFSNAWMHWVRQAPGKGLEWVAQIKDKGNAYAAIYAPSVKGRFTISRDDSKNSIYLQMNSLKTEDTAVYYCHYVHYASASTVLPAFGVDAWGQGTTVTVSS
VL: DIVMTQSPLSLPVTPGEPASISCQASQELVHMNRNTYLHWYQQKPGQAPRLLIYKVSNRFPGVPDRFSGSGSGTDFTLKISRVEAEDVGVYYCAQGTSVPFTFGQGTKLEIK

Target: T1, Human CD3eg linker
Experiment: Biacore SPR, vs template H183/L072

Point of comparison: B16, “fold change of affinity” value 0.5 fold. Against it:
- B1 — lower, 0 fold
- B2 — higher, 0.6 fold
- B3 — higher, 0.6 fold
- B4 — lower, 0.3 fold
- B5 — higher, 1.4 fold
- B6 — lower, 0.3 fold
- B7 — lower, 0.4 fold
- B8 — lower, 0.3 fold
- B9 — lower, 0 fold
- B10 — lower, 0.4 fold
- B11 — lower, 0.2 fold
- B12 — lower, 0.2 fold
- B13 — lower, 0.3 fold
- B14 — the same, 0.5 fold
- B15 — the same, 0.5 fold
- B17 — lower, 0.4 fold
- B18 — higher, 0.6 fold
- B19 — the same, 0.5 fold
- B20 — lower, 0.3 fold
